Measured values: patent US20220235143A1

Experiments:
[1] = biological target: MUC16 c114 expressed on transfected SKOV3 cells (SKOV3^c114) (human); assay: Lindmo cell-binding assay on SKOV3^c114 cells
[2] = biological target: MUC16 c114 expressed on transfected SKOV3 cells (SKOV3^c114) (human); assay: saturation binding of 89Zr-DFO antibody on SKOV3^c114 cells
[3] = biological target: MUC16 c114 expressed on transfected SKOV3 cells (SKOV3^c114) (human); assay: Lindmo cell-binding assay, 89Zr-DFO antibody on SKOV3^c114 cells
[4] = biological target: MUC16 c114 expressed on transfected SKOV3 cells (SKOV3^c114) (human); assay: saturation binding assay, 89Zr-labeled antibody on SKOV3^c114 cells, cell bound activity (counts); right panel
[5] = biological target: MUC16 as naturally expressed on ovarian cancer cell lines (OVCAR3; also OVCA-433, CAOV3) (human); assay: FACS surface staining of OVCAR3 cells, goat anti-mouse IgG2b-PE detection; same cells: secondary alone 65.8, cells only 24.6
[6] = biological target: MUC16 as naturally expressed on ovarian cancer cell lines (OVCAR3; also OVCA-433, CAOV3) (human); assay: FACS surface staining of OVCAR3 cells, goat anti-mouse IgG2b-PE detection; same cells: secondary alone 1.95, cells only 0.34
[7] = biological target: MUC16 c114 expressed on transfected SKOV3 cells (SKOV3^c114) (human); assay: FACS surface staining of SKOV3-c114 transfectant cells, goat anti-mouse IgG2b-PE detection; same cells: secondary alone 138, cells only 36.8; 4H11 on vector control SKOV3-phrGFP 162
[8] = biological target: MUC16 c344 expressed on transfected cells (SKOV3-phrGFP-MUC16c344, A2780-phrGFP-MUC16c344) (human); assay: FACS surface staining of SKOV3-c344 transfectant cells, goat anti-mouse IgG2b-PE detection; same cells: secondary alone 106, cells only 49.2; 4H11 on vector control SKOV3-phrGFP 162
[9] = biological target: MUC16 c114 expressed on transfected SKOV3 cells (SKOV3^c114) (human); assay: FACS surface staining of A2780-c114 transfectant cells, goat anti-mouse IgG2b-PE detection; same cells: secondary alone 0.10, cells only 0.01; 4H11 on vector control A2780-phrGFP 0.88
[10] = biological target: MUC16 c344 expressed on transfected cells (SKOV3-phrGFP-MUC16c344, A2780-phrGFP-MUC16c344) (human); assay: FACS surface staining of A2780-c344 transfectant cells, goat anti-mouse IgG2b-PE detection; same cells: secondary alone 0.68, cells only 0.07; 4H11 on vector control A2780-phrGFP 0.88
[11] = biological target: MUC16 c114 expressed on transfected SKOV3 cells (SKOV3^c114) (human); assay: FACS surface staining of SKOV3-c114 transfectant cells, goat anti-mouse IgG2b-PE detection; same cells: secondary alone 6.80, cells only 0.14; 4H11 on vector control SKOV3-phrGFP 2.80
[12] = biological target: MUC16 c344 expressed on transfected cells (SKOV3-phrGFP-MUC16c344, A2780-phrGFP-MUC16c344) (human); assay: FACS surface staining of SKOV3-c344 transfectant cells, goat anti-mouse IgG2b-PE detection; same cells: secondary alone 0.53, cells only 0.04; 4H11 on vector control SKOV3-phrGFP 2.80
[13] = biological target: MUC16 c114 expressed on transfected SKOV3 cells (SKOV3^c114) (human); assay: FACS surface staining of A2780-c114 transfectant cells, goat anti-mouse IgG2b-PE detection; same cells: secondary alone 42.3, cells only 24.6; 4H11 on vector control A2780-phrGFP: bar at the level of secondary alone, label overlapped
[14] = biological target: MUC16 c344 expressed on transfected cells (SKOV3-phrGFP-MUC16c344, A2780-phrGFP-MUC16c344) (human); assay: FACS surface staining of A2780-c344 transfectant cells, goat anti-mouse IgG2b-PE detection; same cells: secondary alone 69.8, cells only 33.7; 4H11 on vector control A2780-phrGFP: bar at the level of secondary alone, label overlapped

MUC16 c114 expressed on transfected SKOV3 cells (SKOV3^c114) (human), sequence (chain, as listed by the source limits assumed): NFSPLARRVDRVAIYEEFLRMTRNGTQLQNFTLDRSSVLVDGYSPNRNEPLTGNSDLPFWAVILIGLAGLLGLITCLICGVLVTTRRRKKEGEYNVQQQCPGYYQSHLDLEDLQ
MUC16 c344 expressed on transfected cells (SKOV3-phrGFP-MUC16c344, A2780-phrGFP-MUC16c344) (human), sequence (chain, as listed by the source limits assumed): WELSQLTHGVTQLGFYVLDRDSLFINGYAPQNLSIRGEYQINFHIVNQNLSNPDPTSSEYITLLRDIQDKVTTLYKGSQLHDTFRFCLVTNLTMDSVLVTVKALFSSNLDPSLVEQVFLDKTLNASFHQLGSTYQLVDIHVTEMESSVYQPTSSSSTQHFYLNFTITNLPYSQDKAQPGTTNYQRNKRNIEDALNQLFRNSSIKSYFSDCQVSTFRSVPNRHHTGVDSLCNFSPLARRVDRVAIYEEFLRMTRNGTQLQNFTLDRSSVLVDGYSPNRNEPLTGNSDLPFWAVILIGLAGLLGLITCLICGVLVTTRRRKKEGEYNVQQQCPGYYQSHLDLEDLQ

immunoreactive fraction [1]: > 80%
Kd [2]: 6.4 nM
Immunoreactive Fraction (%) [3]: 88.3%
EC50 (read off the curve) [4]: 6 nM
Kd [4]: 6.37 nM
Geometric Mean PE Fluorescence (Relative Number) [5]: 3050
% PE Positive [6]: 98.5%
Geometric Mean PE Fluorescence (Relative Number) [7]: 2080
Geometric Mean PE Fluorescence (Relative Number) [8]: 1580
% PE Positive [9]: 71.3%
% PE Positive [10]: 93.8%
% PE Positive [11]: 95.9%
% PE Positive [12]: 41.2%
Geometric Mean PE Fluorescence (Relative Number) [13]: 544
Geometric Mean PE Fluorescence (Relative Number) [14]: 777
Substance: 4H11 murine monoclonal antibody
